# Assay results taken from the DeepSol protein solubility set.
# Experiment: soluble on expression in E. coli; label from the status in PepcDB or PDB records
row,Sequence,soluble on expression in E. coli
1,LDTTRESIRIGDNLGNVINDPISSREIETQNERDNDLINRYYRPDELEKVKVVDFKPIILNLDELDNDELIMALEEKPAYSRTGVLLSRIDNIRMRIAESAGRLKKDVVRSEESERPAFESERSSSPTTISFN,not soluble
2,MAHAPARCPSARGSGDGEMGKPRNVALITGITGQDGSYLAEFLLEKGYEVHGIVRRSSSFNTGRIEHLYKNPQAHIEGNMKLHYGDLTDSTCLVKIINEVKPTEIYNLGAQSHVKISFDLAEYTADVDGVGTLRLLDAVKTCGLINSVKFYQASTSELYGKVQEIPQKETTPFYPRSPYGAAKLYAYWIVVNFREAYNLFAVNGILFNHESPRRGANFVTRKISRSVAKIYLGQLECFSLGNLDAKRDWGHAKDYVEAMWLMLQNDEPEDFVIATGEVHSVREFVEKSFLHIGKTIVWEGKNENEVGRCKETGKVHVTVDLKYYRPTEVDFLQGDCTKAKQKLNWKPRVAFDELVREMVHADVELMRTNPNA,not soluble
3,MSLKDSGILFVDDDILFLALLRECFMQRGIVIQCAENGEDALQMIQQRPFALLLTDLQMPGMDGLELAGKARKLMPDLPIVLCTGAVTPEVCALAEEIGIAQVVRKPIRFSELFAIVGNIVSLQQTEGHHHHHH,soluble
4,MSSILIIGAGPTGLGAAHRLRGLGLENWHLFESTEQIGGLSASFVDDHGFTWDVGGHVLFSHYDYFDRVVEEALDGAWYEHQRECWVRIRETWVPYPFQNNIRHLPPDALEECLAGLKGLAGSPSLAANFREWMDRVFGAGIVKHFMEPYNRKVWGVPLHEMSREWIGERVSVIDLARIEKNIAEKTDDVNWGPNNTFKFPHKGGTGAIFSSIATRFQDRISFSHELTEVNLAARELGFSNGRRERYDSLITTIPLDIFIGLCRDVPESVREAASRLVHNSGLIVGIGVEGERRDSKCWMYFPEDNCPFYRVTNFHNYSPWNVPNGDTSRFFSLMCETTSSPHKPVNRAEIVETTIQGLINAGMLTESERERIISRYVIDIPYSYPVPTVGRDEALAVINPFLESQGVYSRGRFGAWKYEVGNMDHSFMQGVEVADRILNGADEPTVTGKGGDRLEHHHHHH,not soluble
5,GDFSWNSSLTYTMNRNKVKRLASGATNPITGEIIDMPELRMAVLGADGYGPRVILREGGTMGDLYVDKGLRTDGNGNIWVDSQTGKVGVQDYAEPKKIGTMNPDFNMGFSNTFSYKGINLGVVLTARVGGLCVSNTQGILDYYGVSKATADARDAGGVWINNGFVDAKSYYQTIGGSTGGLGQYYTYSATNIRLSELNLSYTLPRKWFNNKVGITAGIVGKNLWMIYCKAPFDPEMTPSTTSNFYQGVDYFMQPSTRNIGFNVKFQF,not soluble
6,MLFKRYGDPISLLRTYRLCDLMEFIFYVQEVEQEEKIYNQWLHTQMTQSLKEFKDQQKYRPLRKNKAKSTTKEEQQKALDFASQFVKPRKEGEVS,not soluble
7,MVSQRLHHRCDLVFFVVDSKHDQLNLDRFEFWQLTSQLLVLDVCLFDAFALEHHHHHH,not soluble
8,MSLLIKNGKIFTCEEGKIYEKGDILIKDGKISKIGEDLSQYIGEEEVIDAKGLLIFPGFIEAHCHLGLHEEGNNGAGNGTNEASEPITPQMRAIDGINPFDGGFQSAREAGVTTAVIGPGSANVIGGQFAAVKTSGICIDDMIIKESVAIKVAFGENPKRVYSGKNKMPNTRMAIAALLRETLTEAVNYKNRKIDAEIEDKDFSKNLKYEALLPLINREIPMKAHAHRADDILTAIRIAKEFNLKLTLDHCTEGHLISDYIKRENLDAIVGPTLSFNGKAETLNKTFKTPKALIDKGIKVAITTDHPVVTIDNLPLCAAMAMKEGITFNEVLEAITINPAEIIGIDERVGSLKEGKDGDLVILNGSPFEIATKTIYTIINGEVVYKDEGHHHHHH,soluble
9,MGSDKIHHHHHHMTLKDIAEMAGVSTMTVSNVINGKTSRVSQKTRDKINSIIEEYNYVPNMNARSLSNNSSHIIGVVTFLEEKEYASGYNYFENPYVSTMIGTIETELHKNGYFTMLQSVSRSSDILSLVKNWNVDGMILVFPTSAQNLEKLMDAANCPIATFDSNYSHPNLINVISDDEKGLYLSTKYMINHGHTEIAFVADYEGNIVLTKRFNGYKKALEDSHIPFRPEYIFSYPPSYEGGIEAGRAIAGSKSPITAVVTTADICAIGIMEGARLGGYRVPIDLSVIGYDNLNLCQYTVPKLTSVSQNVPKKARLATELLLKKIHDNESDSNLGEIIDVEIVDRQSVISLY,not soluble
10,MGTSGCTVDTSRRDKVRMALPHAELEQARMDNLTRHVAQNFLREPQVVGEPNDSGVAVSQLLFEKSDTVVISDREIHHQLRAASIAVVAHAPMLLMDDTDRDAVQAEIGRLGARYILAIGDVGLPKTTGNVKVIPDSGSLTALGKLTSLQFRTQRIDVSNALSAVSRLDGTHPMWLLTNRQEKVQSSPSDGEVSAFPVQSRRDAGAAPQVIATQESGIAAVATARSYGASVTVMRFPDPRLNVESMRAVAGLSDQPLIALGSQFGTSQQLSERIELGERAPLALPHKTGLVFALRTLRARYLNDSDVSEHVDIPYGANYVRTIAHPLSSQDQQDWKAWADAINAQDGFVFIEIDAVHRDADEILDSVEEIVSQPSIGVILRNAAQVCARSPQSRQRIADRLMHWNSEVINHNGDQLGVVLEGVDILRGGVCGISPQELMGLGLAILPARGEHLGGDATVNSQLYWDDWFVAERESFQPTGTLRSPRLGLIIRD,not soluble
11,MSLTDLNRTDLNRTDLNRTDLNRTDLNRTALPSRTDGTVEKTDTLVVGAGQAGVAMSEHLSRLGVPHLVLERNRIAEAWRSGRWDSLVANGPAWHDRFPGMEFDIDPDGFPGKDQVAAYFEAYAKKFDAPIRTGVEVRKVVRNVGRPGFTVETSAGTIEANRVVAATGPFQRPVIPPIAPRDERIRQIHSAHYYNPQQLPEGAVLVVGAGSSGVQIADELQRAGRQVYLSVGAHDRPPRSYRNRDFCWWLGVLGEWDAEVAKPGREHVTIAVSGARGGHTVDFRALAHQGVTLVGLTESFVDGVATFRPDLAENLARGDENYLALLDAADAYIARNGLDLPEEPEARRRLPDPQCVTDPILELDLAEAGVGSIIWATGYAVDFGWLQVDAFDRDGKPRHQRGVSSEPGVYFIGLPWLSRRGSSFIWGVWHDARHVADHIAIQRKYLAYRDAAQRQEQDRASQAPQTSLQEVSEGHHHHHH,soluble
12,SDERHKTDIAPISDKVLDAWEKVKFYQYKFKDAVDEKGEEARYHFGVIAQQIVKVFEDEGLSAFDYGLVGYDEWEATEDEYDSEGNLVEKGREAGNIYSIRPTECQWLEMACMRRKLERLSLEHHHHHH,soluble
13,MNMKATALTATTVAIASLLPSMGETNVQKANAEQLSNIKTGYVKVDQVALHTEDNVKSTSIDTIRFNTKVNIIETTNGWYKVSVHNKVGYVQKDAILLKNKLQSNDQYIVNANALNVRSEPNLESSILDVLPNGKFITVQEDQGEWYKISHNGQTGYVQKAFISNGSQPLVKGITVQNNTKYTVATPNLNVRSTASTSSALLGSLQNGTQVQVVETVGTWYKIRFGTGYGYVAKHYVVQNQPQAKTDQPSSIPAAFKFPAQGRISSTFDIRWEQMHYGIDIAAPGNVSIQAAAAGKVVKSYYSASYGNVVFIAHQINGKLYTTVYAHMKDRTVQAGDQVQTGQLIGHMGNTGHSYGQHLHCELHNGEWNFEKTDAVNPLPYLVRLEHHHHHH,soluble
14,MYGYYSIGELTKEFSITARTLRYYEEEGLLVPCRHGSARFYTQTDRHKLKQILRAKRVKFSLSEISEMLSMVGKPPTDEKKLKELIAGVNKKRADLQQMQRDIDDFLHDLERIEETLFESLAELGVNR,not soluble
15,MTLRKILALTCLLLPMMASAHQFETGQRVPPIGITDRGELVLDKDQFSYKTWNSAQLVGKVRVLQHIAGRTSAKEKNATLIEAIKSAKLPHDRYQTTTIVNTDDAIPGSGMFVRSSLESNKKLYPWSQFIVDSNGVALGAWQLDEESSAVVVLDKDGRVQWAKDGALTPEEVQQVMDLLQKLLK,not soluble
16,MSRGGKGGDGDTRGGGGENGNQNNKGGNDEGGNEIEVPSMEELDGLADKIADEFVSQGMKIYQTLDPETRPYPDEYREGLRSQVEELPEKFKEFYTPGPGEFTAKLDLIDELTRKLDTQAGDFNTGEISGHVHDAMDNMGEWEGALSISFRKGYLDPLYEGIIPNHGRVLALLHDNFQAMRDIYAEGRKSLKKIGEDGLSAMEQADDVDGAAVVTALTVLAAAFGLGFAGLAAVPGIATAAGVAGAAVAGGLAVASDQAPEPEEIPLAGSSAEDVLVNIYDALSKLEDDILTKEAELIDTILRGCDETLELVGDTTENSMLVPKMPDLVGTALDDYHQISEGLNQFD,not soluble
17,MGSDKIHHHHHHMRVKYPSIPHLPWSPGLQNDDRRITSLSGFIGKEVVVTEKLDGENTSLYRDDLHARSLDMRPHPSRTWVKAERGRVAHDIPLGWRFCGENVYAVHSLKYDDLDGYFYLFSVWDDLNVSRPWDEVRGWAERLSLPTPRELYRGPWDEAALQALDPDPERMEGYVVRVTAAIPYADFGRKVAKWVRRGHVQTDQHWLSQPVEPNGLKRQEQS,not soluble
18,MGSDKIHHHHHHMIETQKEQERALLVGVELQQTDNFDMSMEELASLAKTAGALVKGVYTQKREKYDSKTFVGSGKLDEIAQMVEADEIDTVIVNNRLTPRQNVNLEEILGVKVIDRMQLILDIFAMRARSHEGKLQVHLAQLKYMLPRLVGQGIMLSRQAGGIGSRGPGESQLELNRRSIRNQIHDIERQLKTVEKNRATVRERRLQSGVFKIGLIGYTNAGKSTIMNVMTDKRQYEADELFATLDATTKQINLADKFNVTLTDTVGFIQDLPTELISAFKSTLEESMNVDLLLHIIDASDPNHSEQEQVVLDILKDLDMLDIPRLALYNKLDKTDDSFTPSQFPHVMLSAKDENAKGHIQMMVLAKIKTMFERFEVRVPLAESYKLHDLATLALIENRTYEEDVEVVSGYIASANKWKLEEFYDGLS,not soluble
19,MLTAATEVLAAADGPGSAESAWAWRDAPIATLVQRIQQLQNERAQAFRRLDQAHRQYLLSGQHYDFPSYRSVVHEVTQAFAAASREVLAVEAELAGPRAQPVLARHVRSLQELEQTRLATVALLQVMGTPGVSEQDPEKLHQLKIKVIKTMEAIGEVLQELRFDAESAE,soluble
20,MGSDKIHHHHHHMKVSTISIDLAKNVFQLLGMDKHAKQVFSKRLNRTQLSEFMSQQPVCDVVFEACYSSHYWGRKFLAMGHNVKLIPAQHVTPFVRGSKNDKNDAMAIYEANFRPNIRFVPIKTEAQQEILMLHRVRERLVKQRTACTNQIRGVLVDFGICFPQGHSAFERAMWDIINDESQRPIIKLMANDFWDEYQTVSTRLDRINRLIKQLVEQDPNGKILLSIPGVGPIIASAFAAAIGAGQAFNSAKELAVWLGLTPQQFASGNKSINGSITKRGDGYLRKQLIHGARTVVSHASKKNDDLNQWITQLRNRKSICTTVVATAHRLARLMWILLHKQVPYAPQYGAYQGISHEAN,not soluble
21,MGSDKIHHHHHHLITIENSKFKAGIAERGAELQSLVNKADNYEYVWTGDKTFWNRHAPILFPSIGKSNQDQYRLGAKTYPMSQHGFARDYDFDVSDKSDSAVTFTQHQNAETLKKFPFEYTLAVTYMLTDGGLSVHYTVTNDDSKSMPFALGFHPAFNVGLKADGSFDDYDLTVEPLNSPLQRFGIGPVPFRNGDVEDIPGAEGNRLPLTHDLLDGGLVILANSEIAKATLASPHHDHSITLDISDFPYLTIWSPEHKKAPFIAVEPFDGLPDQAGEPTDWYTKLGNTTLSAGANKQLALKVELH,not soluble
